The text below walks through data of publication PMC3658276, “Plant stem cell maintenance involves direct transcriptional repression of differentiation program”.

For the data set, the target named is T1, WUSCHEL (His-WUS) (UniProt Q9SB92 1-292).
T1 sequence: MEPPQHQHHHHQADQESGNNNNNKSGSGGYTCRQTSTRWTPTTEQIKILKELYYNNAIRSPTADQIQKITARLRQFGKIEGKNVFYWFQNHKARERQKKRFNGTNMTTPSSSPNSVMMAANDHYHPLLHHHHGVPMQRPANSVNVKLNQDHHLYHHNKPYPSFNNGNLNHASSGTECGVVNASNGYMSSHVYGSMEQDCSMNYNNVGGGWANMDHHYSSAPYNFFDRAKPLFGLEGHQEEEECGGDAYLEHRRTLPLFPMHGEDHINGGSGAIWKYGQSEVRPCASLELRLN
The experiment in a line: EMSA; supershift with anti-WUS antibody; EMSA conditions not given; as in Yadav et al 2011. The conditions noted are these: protein: recombinant; tags: His; chain copies: 2; (radiolabeled). (In general: A gel shift assay detects complexes by their altered migration in electrophoresis.)

B1: KAN1 -1100 oligo (dsDNA)
DNA 1: TACTGATATTTAATGTATATTTATCTCT
DNA 2: AGAGATAAATATACATTAAATATCAGTA
On to B1, for which the binding result is “binds”.

B2: KAN1 1050 oligo (dsDNA)
DNA 1: TCTTACACTAATACTATATTTACACATG
DNA 2: CATGTGTAAATATAGTATTAGTGTAAGA
Regarding B2, the binding result is “binds”.
